Measured values: the supplement of paper PMC9112550, “Optimization of the antimicrobial peptide Bac7 by deep mutational scanning” (BMC Biology, 2022)

Test system: Escherichia coli TOP10
Experiment: shrunken log2 fold change of peptide-encoding DNA abundance (4.5 h post-induction vs induction); higher = less antimicrobial activity (less host growth inhibition)
Settings: time post-induction: 4.5 h; library: site-saturation at positions 5, 18, 19, 20
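Also: peptides expressed intracellularly from a pBAD plasmid library in pooled LB shake-flask culture, induced with 0.3% L-arabinose, DNA abundance read by NGS, three biological replicates, DESeq2 with apeglm shrinkage.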

| Sequence | shrunken log2 fold change |
| --- | --- |
| RRIRWRPPRLPRPRPRPSQGPRP | 0.27 |
| RRIRGRPPRLPRPRPRPRCQPRP | 0.835 |
| RRIRHRPPRLPRPRPRPAAEPRP | 0.334 |
| RRIRIRPPRLPRPRPRPDQTPRP | 0.000407 |
| RRIRNRPPRLPRPRPRPNMTPRP | -0.345 |
| RRIRYRPPRLPRPRPRPDAWPRP | 0.0522 |
| RRIRVRPPRLPRPRPRPIAPPRP | 0.328 |
| RRIRSRPPRLPRPRPRPRIWPRP | 0.183 |
| RRIRIRPPRLPRPRPRPWQSPRP | -0.0531 |
| RRIRGRPPRLPRPRPRPRWSPRP | 0.754 |
| RRIRVRPPRLPRPRPRPRHEPRP | 0.193 |
| RRIRWRPPRLPRPRPRPCEYPRP | -0.379 |
| RRIRKRPPRLPRPRPRPEPCPRP | 0.0397 |
| RRIRIRPPRLPRPRPRPFYMPRP | -0.235 |
| RRIRARPPRLPRPRPRPTFYPRP | -0.00745 |
| RRIRARPPRLPRPRPRPKHHPRP | -0.00948 |
| RRIRKRPPRLPRPRPRPNSYPRP | 0.141 |
| RRIRARPPRLPRPRPRPKKRPRP | 0.626 |
| RRIRKRPPRLPRPRPRPPQDPRP | 0.636 |
| RRIRNRPPRLPRPRPRPAELPRP | -0.0198 |
| RRIRGRPPRLPRPRPRPGDAPRP | 1.09 |
| RRIRTRPPRLPRPRPRPPFEPRP | 0.156 |
| RRIRNRPPRLPRPRPRPVYPPRP | -0.341 |
| RRIRHRPPRLPRPRPRPDKDPRP | -0.44 |
| RRIRWRPPRLPRPRPRPQYLPRP | -0.12 |

| Sequence | shrunken log2 fold change |
| --- | --- |
| RRIRPRPPRLPRPRPRPAALPRP | 0.248 |
| RRIRSRPPRLPRPRPRPKFKPRP | -0.121 |
| RRIRNRPPRLPRPRPRPHRAPRP | 0.264 |
| RRIRFRPPRLPRPRPRPEMSPRP | 0.000731 |
| RRIRQRPPRLPRPRPRPQWHPRP | -0.0165 |
| RRIRIRPPRLPRPRPRPFYHPRP | -0.594 |
| RRIRPRPPRLPRPRPRPKRSPRP | 0.0941 |
| RRIRGRPPRLPRPRPRPWANPRP | 0.0528 |
| RRIRARPPRLPRPRPRPYYCPRP | -0.331 |
| RRIRHRPPRLPRPRPRPLSFPRP | -0.137 |
| RRIRNRPPRLPRPRPRPWTYPRP | -0.351 |
| RRIRWRPPRLPRPRPRPHGYPRP | -0.018 |
| RRIRARPPRLPRPRPRPMATPRP | 0.601 |
| RRIRVRPPRLPRPRPRPLAHPRP | 0.00485 |
| RRIRERPPRLPRPRPRPTYKPRP | -0.579 |
| RRIRMRPPRLPRPRPRPPADPRP | 2.99 |
| RRIRGRPPRLPRPRPRPKHFPRP | -0.121 |
| RRIRCRPPRLPRPRPRPLHWPRP | 0.467 |
| RRIRPRPPRLPRPRPRPCKWPRP | -0.32 |
| RRIRIRPPRLPRPRPRPSFIPRP | -1.24 |
| RRIRERPPRLPRPRPRPWLDPRP | 0.121 |
| RRIRSRPPRLPRPRPRPPWAPRP | 0.643 |
| RRIRSRPPRLPRPRPRPDLRPRP | 0.248 |
| RRIRYRPPRLPRPRPRPMNMPRP | -0.139 |
| RRIRIRPPRLPRPRPRPNDFPRP | -0.276 |

| Sequence | shrunken log2 fold change |
| --- | --- |
| RRIRLRPPRLPRPRPRPSMTPRP | 1.72 |
| RRIRIRPPRLPRPRPRPNTEPRP | -0.0443 |
| RRIRLRPPRLPRPRPRPWMYPRP | -0.0417 |
| RRIRERPPRLPRPRPRPVSTPRP | -0.199 |
| RRIRARPPRLPRPRPRPVKYPRP | -0.166 |
| RRIRFRPPRLPRPRPRPNYSPRP | -0.8 |
| RRIRKRPPRLPRPRPRPSPKPRP | 0.057 |
| RRIRRRPPRLPRPRPRPFNFPRP | -0.473 |
| RRIRSRPPRLPRPRPRPNFAPRP | 0.245 |
| RRIRKRPPRLPRPRPRPTNSPRP | -0.241 |
| RRIRFRPPRLPRPRPRPKKQPRP | 0.0157 |
| RRIRGRPPRLPRPRPRPIMPPRP | 0.0639 |
| RRIRVRPPRLPRPRPRPPPEPRP | 0.755 |
| RRIRPRPPRLPRPRPRPLCQPRP | -0.116 |
| RRIRDRPPRLPRPRPRPHCPPRP | -0.191 |
| RRIRRRPPRLPRPRPRPMGEPRP | 0.0186 |
| RRIRQRPPRLPRPRPRPFHEPRP | -0.0703 |
| RRIRARPPRLPRPRPRPSDKPRP | -0.197 |
| RRIRWRPPRLPRPRPRPAEEPRP | 3.62 |
| RRIRVRPPRLPRPRPRPPFVPRP | 0.0393 |
| RRIRSRPPRLPRPRPRPIYGPRP | -0.306 |
| RRIRYRPPRLPRPRPRPAMGPRP | -0.031 |
| RRIRMRPPRLPRPRPRPANFPRP | -0.000946 |
| RRIRCRPPRLPRPRPRPQPEPRP | 0.13 |
| RRIRCRPPRLPRPRPRPKQHPRP | 0.189 |

| Sequence | shrunken log2 fold change |
| --- | --- |
| RRIRHRPPRLPRPRPRPSCNPRP | -0.599 |
| RRIRTRPPRLPRPRPRPYPGPRP | -0.164 |
| RRIRSRPPRLPRPRPRPKRYPRP | -0.163 |
| RRIRWRPPRLPRPRPRPSWLPRP | -0.167 |
| RRIRSRPPRLPRPRPRPWCAPRP | 0.0451 |
| RRIRSRPPRLPRPRPRPYMIPRP | -1.11 |
| RRIRRRPPRLPRPRPRPHSSPRP | -0.00646 |
| RRIRIRPPRLPRPRPRPGESPRP | -0.0125 |
| RRIRERPPRLPRPRPRPSGAPRP | -0.12 |
| RRIRFRPPRLPRPRPRPENGPRP | -0.166 |
| RRIRSRPPRLPRPRPRPEYIPRP | -0.0603 |
| RRIRSRPPRLPRPRPRPRYYPRP | -0.554 |
| RRIRFRPPRLPRPRPRPWVHPRP | 0.0589 |
| RRIRERPPRLPRPRPRPCWPPRP | 0.0214 |
| RRIRDRPPRLPRPRPRPFFTPRP | -0.024 |
| RRIRHRPPRLPRPRPRPKMKPRP | -0.232 |
| RRIRCRPPRLPRPRPRPRTKPRP | 0.246 |
| RRIRNRPPRLPRPRPRPTVCPRP | -0.0905 |
| RRIRRRPPRLPRPRPRPYLWPRP | -0.439 |
| RRIRDRPPRLPRPRPRPTTQPRP | 0.831 |
| RRIRDRPPRLPRPRPRPLVAPRP | 0.912 |
| RRIRERPPRLPRPRPRPIVFPRP | 0.0592 |
| RRIRVRPPRLPRPRPRPAQKPRP | 0.135 |
| RRIRKRPPRLPRPRPRPHKIPRP | 0.134 |
| RRIRFRPPRLPRPRPRPETIPRP | -0.103 |

| Sequence | shrunken log2 fold change |
| --- | --- |
| RRIRLRPPRLPRPRPRPIVFPRP | -0.0377 |
| RRIRYRPPRLPRPRPRPIAAPRP | -0.158 |
| RRIRDRPPRLPRPRPRPMSKPRP | 0.101 |
| RRIRKRPPRLPRPRPRPEWYPRP | -0.204 |
| RRIRKRPPRLPRPRPRPQYNPRP | -0.67 |
| RRIRLRPPRLPRPRPRPQWMPRP | -0.0896 |
| RRIRIRPPRLPRPRPRPDLIPRP | -0.217 |
| RRIRVRPPRLPRPRPRPRCGPRP | -0.0269 |
| RRIRNRPPRLPRPRPRPCAMPRP | -0.132 |
| RRIRARPPRLPRPRPRPGACPRP | 0.783 |
| RRIRERPPRLPRPRPRPKAPPRP | 0.124 |
| RRIRTRPPRLPRPRPRPWGMPRP | -0.126 |
| RRIRVRPPRLPRPRPRPHMCPRP | -0.301 |
| RRIRCRPPRLPRPRPRPELIPRP | -0.0287 |
| RRIRFRPPRLPRPRPRPPQTPRP | 0.473 |
| RRIRPRPPRLPRPRPRPGTWPRP | 0.0893 |
| RRIRGRPPRLPRPRPRPPDFPRP | 0.46 |
| RRIRGRPPRLPRPRPRPFWQPRP | 0.467 |
| RRIRNRPPRLPRPRPRPMAFPRP | -0.192 |
| RRIRSRPPRLPRPRPRPTWAPRP | 0.518 |
| RRIRDRPPRLPRPRPRPWLCPRP | -0.0939 |
| RRIRERPPRLPRPRPRPWDVPRP | 0.0649 |
| RRIRKRPPRLPRPRPRPTTHPRP | 0.495 |
| RRIRVRPPRLPRPRPRPIKYPRP | -0.169 |
| RRIRVRPPRLPRPRPRPAELPRP | 0.175 |
